Experimental data from article PMC5714199.

Key:
Assay in all cases: SPR
TopA CTD = TopA CTD (Streptomyces coelicolor, UniProt Q9X909 610-952)
TopA wild type = TopA wild type (Streptomyces coelicolor, UniProt Q9X909 1-952)
CTDΔED = CTDΔED (Streptomyces coelicolor, UniProt Q9X909 610-950, del951-952)
TopA881 = TopA881 (Streptomyces coelicolor, UniProt Q9X909 1-881, del882-952)

Measured: binding result

B1: sstopA-biot 120 nt ssDNA (63% GC) (ssDNA)
DNA: not shown
binds: all assays above
